What is called Kd is a measure of binding affinity in units of concentration.

Sequences and labels used below:
B2: Mouse neonatal Fc receptor (mFcRn) (receptor)
chain 1: SETRPPLMYHLTAVSNPSTGLPSFWATGWLGPQQYLTYNSLRQEADPCGAWMWENQVSWYWEKETTDLKSKEQLFLEALKTLEKILNGTYTLQGLLGCELASDNSSVPTAVFALNGEEFMKFNPRIGNWTGEWPETEIVANLWMKQPDAARKESEFLLNSCPERLLGHLERGRRNLEWKEPPSMRLKARPGNSGSSVLTCAAFSFYPPELKFRFLRNGLASGSGNCSTGPNGDGSFHAWSLLEVKRGDEHHYQCQVEHEGLAQPLTVDLDSSARSS
chain 2: IQKTPQIQVYSRHPPENGKPNILNCYVTQFHPPHIEIQMLKNGKKIPKVEMSDMSFSKDWSFYILAHTEFTPTETDTYACRVKHASMAEPKTVYWDRDM

Assay [1] addresses B2. The assay is described as follows: SPR. Background: Surface plasmon resonance follows binding to a sensor surface in real time, without labels.
Assay [2] has as its target Wild-type human IgG1 Fc (Fc^WT) (human, N-linked glycan at N297, predominantly fucosylated agalactosylated or monogalactosylated). As to the kind of experiment: SPR.

B1: Human IgG1 Fc bearing the Abdeg mutations (Fc^Abdeg, efgartigimod) (domain or fragment)
chain: DKTHTCPPCPAPELLGGPSVFLFPPKPKDTLYITREPEVTCVVVDVSHEDPEVKFNWYVDGVEVHNAKTKPREEQYNSTYRVVSVLTVLHQDWLNGKEYKCKVSNKALPAPIEKTISKAKGQPREPQVYTLPPSRDELTKNQVSLTCLVKGFYPSDIAVEWESNGQPENNYKTTPPVLDSDGSFFLYSKLTVDKSRWQQGNVFSCSVMHEALKFHYTQKSLSLSPGK
The molecule B1 returned a Kd in assay [1] of 0.00027 µM.
Consider B2, for which the affinity in assay [2], expressed as Kd, was 0.07 µM.

These data come from PMC10866649 (2024).
